Assay results as given in publication PMC7166090, “A bacteriophage mimic of the bacterial nucleoid-associated protein Fis” (Biochemical Journal, 2020).

Experiments:
His-NinH R56A = molecular target: T1, His-NinH R56A (Bacteriophage lambda (cI857 Sam7), UniProt P03771 1-68, A15T;R56A); assay: AUC; sedimentation velocity, ~0.6 mg/ml protein, 4°C, 50 000 rpm, scans at 260 and 280 nm, SEDFIT
T1 sequence: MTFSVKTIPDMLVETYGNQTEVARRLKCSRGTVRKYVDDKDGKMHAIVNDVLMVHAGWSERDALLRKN

His-NinH N18A = molecular target: T2, His-NinH N18A (Bacteriophage lambda (cI857 Sam7), UniProt P03771 1-68, A15T;N18A); assay: as above
T2 sequence: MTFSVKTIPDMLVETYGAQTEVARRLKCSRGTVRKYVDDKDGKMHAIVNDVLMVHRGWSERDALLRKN

His-NinH K35A = molecular target: T3, His-NinH K35A (Bacteriophage lambda (cI857 Sam7), UniProt P03771 1-68, A15T;K35A); assay: as above
T3 sequence: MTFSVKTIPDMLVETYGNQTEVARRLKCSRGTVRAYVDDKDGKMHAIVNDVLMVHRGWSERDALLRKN

[1] = molecular target: His-NinH R30A (bacteriophage λ) (UniProt P03771); assay: as above
[2] = molecular target: His-NinH S29A R30A (bacteriophage λ) (UniProt P03771); assay: as above
His-NinH S29A = molecular target: T4, His-NinH S29A (Bacteriophage lambda (cI857 Sam7), UniProt P03771 1-68, A15T;S29A); assay: as above
T4 sequence: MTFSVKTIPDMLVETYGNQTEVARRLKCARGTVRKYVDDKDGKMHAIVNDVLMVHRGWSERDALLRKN

His-NinH T32A = molecular target: T5, His-NinH T32A (Bacteriophage lambda (cI857 Sam7), UniProt P03771 1-68, A15T;T32A); assay: as above
T5 sequence: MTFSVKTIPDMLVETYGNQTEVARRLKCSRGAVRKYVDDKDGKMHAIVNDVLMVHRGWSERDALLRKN

NinH (native, untagged) [3] = molecular target: T6, NinH (native, untagged) (Bacteriophage lambda (cI857 Sam7), UniProt P03771 1-68, A15T); assay: EMSA; two complexes; MST: PBS pH 7.4 + 0.05% Tween-20, 22 C; anisotropy: 6.7 mM Tris-HCl pH 8.0, 3.3 nM (so in the source) sodium acetate, 2 mM EDTA, 25 C; EMSA (32P): 50 mM Tris-HCl pH 8.0, 5 mM EDTA, 1 mM DTT, 5% glycerol, 100 ug/ml BSA, on ice; EMSA (Cy520): PBS pH 7.4, room temp; conditions: protein: recombinant; tags: none; chain copies: 2; label: 5'-32P on strand 1; blunt
T6 sequence: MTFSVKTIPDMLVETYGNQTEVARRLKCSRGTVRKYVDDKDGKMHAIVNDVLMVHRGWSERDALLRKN

NinH (native, untagged) [4] = molecular target: T6, NinH (native, untagged); assay: EMSA; similar to DS60; MST: PBS pH 7.4 + 0.05% Tween-20, 22 C; anisotropy: 6.7 mM Tris-HCl pH 8.0, 3.3 nM (so in the source) sodium acetate, 2 mM EDTA, 25 C; EMSA (32P): 50 mM Tris-HCl pH 8.0, 5 mM EDTA, 1 mM DTT, 5% glycerol, 100 ug/ml BSA, on ice; EMSA (Cy520): PBS pH 7.4, room temp; conditions: protein: recombinant, tags: none, chain copies: 2, label: 5'-32P on strand 1
NinH (native, untagged) [5] = molecular target: T6, NinH (native, untagged); assay: EMSA; affinity similar to DS60, more second complex; MST: PBS pH 7.4 + 0.05% Tween-20, 22 C; anisotropy: 6.7 mM Tris-HCl pH 8.0, 3.3 nM (so in the source) sodium acetate, 2 mM EDTA, 25 C; EMSA (32P): 50 mM Tris-HCl pH 8.0, 5 mM EDTA, 1 mM DTT, 5% glycerol, 100 ug/ml BSA, on ice; EMSA (Cy520): PBS pH 7.4, room temp; conditions: protein: recombinant, tags: none, chain copies: 2, label: 5'-32P on strand 1
[6] = molecular target: the molecule itself; assay: SAXS; His-NinH in solution at 4 mg/ml, Xeuss 2.0 laboratory SAXS system
His-NinH wt [7] = molecular target: T7, His-NinH wt (Bacteriophage lambda (cI857 Sam7), UniProt P03771 1-68, A15T); assay: EMSA; two complexes; MST: PBS pH 7.4 + 0.05% Tween-20, 22 C; anisotropy: 6.7 mM Tris-HCl pH 8.0, 3.3 nM (so in the source) sodium acetate, 2 mM EDTA, 25 C; EMSA (32P): 50 mM Tris-HCl pH 8.0, 5 mM EDTA, 1 mM DTT, 5% glycerol, 100 ug/ml BSA, on ice; EMSA (Cy520): PBS pH 7.4, room temp; conditions: protein: recombinant; tags: N-His6; chain copies: 2; label: 5'-32P on strand 1; blunt
T7 sequence: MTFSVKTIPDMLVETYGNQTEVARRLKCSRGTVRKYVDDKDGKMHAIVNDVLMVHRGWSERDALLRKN

His-NinH wt [8] = molecular target: T7, His-NinH wt; assay: EMSA; single complex; MST: PBS pH 7.4 + 0.05% Tween-20, 22 C; anisotropy: 6.7 mM Tris-HCl pH 8.0, 3.3 nM (so in the source) sodium acetate, 2 mM EDTA, 25 C; EMSA (32P): 50 mM Tris-HCl pH 8.0, 5 mM EDTA, 1 mM DTT, 5% glycerol, 100 ug/ml BSA, on ice; EMSA (Cy520): PBS pH 7.4, room temp; conditions: protein: recombinant; tags: N-His6; chain copies: 2; label: 5'-32P on strand 1; fork 1:2, 31 bp duplex
NinH (native, untagged) [9] = molecular target: T6, NinH (native, untagged); assay: fluorescence anisotropy; Hill 2.23; dimer concentration; MST: PBS pH 7.4 + 0.05% Tween-20, 22 C; anisotropy: 6.7 mM Tris-HCl pH 8.0, 3.3 nM (so in the source) sodium acetate, 2 mM EDTA, 25 C; EMSA (32P): 50 mM Tris-HCl pH 8.0, 5 mM EDTA, 1 mM DTT, 5% glycerol, 100 ug/ml BSA, on ice; EMSA (Cy520): PBS pH 7.4, room temp; conditions: protein: recombinant; tags: none; chain copies: 2; label: 3'-fluorescein (C6 linker) on strand 1; blunt
His-NinH wt [10] = molecular target: T7, His-NinH wt; assay: fluorescence anisotropy; Hill 1.985; dimer concentration; MST: PBS pH 7.4 + 0.05% Tween-20, 22 C; anisotropy: 6.7 mM Tris-HCl pH 8.0, 3.3 nM (so in the source) sodium acetate, 2 mM EDTA, 25 C; EMSA (32P): 50 mM Tris-HCl pH 8.0, 5 mM EDTA, 1 mM DTT, 5% glycerol, 100 ug/ml BSA, on ice; EMSA (Cy520): PBS pH 7.4, room temp; conditions: protein: recombinant; tags: N-His6; chain copies: 2; label: 3'-fluorescein (C6 linker) on strand 1; blunt

His-NinH R56A (from UniProt P03771 1-68) (natural protein)
stoichiometry N (His-NinH R56A): 2

His-NinH N18A (from UniProt P03771 1-68) (natural protein)
stoichiometry N (His-NinH N18A): 2

His-NinH K35A (from UniProt P03771 1-68) (natural protein)
stoichiometry N (His-NinH K35A): 2

His-NinH R30A (from UniProt P03771 1-68) (natural protein)
stoichiometry N [1]: 2

His-NinH S29A R30A (from UniProt P03771 1-68) (natural protein)
stoichiometry N [2]: 2

His-NinH S29A (from UniProt P03771 1-68) (natural protein)
stoichiometry N (His-NinH S29A): 2

His-NinH T32A (from UniProt P03771 1-68) (natural protein)
stoichiometry N (His-NinH T32A): 2

B1: DS60 (dsDNA)
DNA 1: TTTGGTCTAACTTTACCGCTACTAAATGCCGCGGATTGGTTTCGCTGAATCAGGTTATTA
DNA 2: TAATAACCTGATTCAGCGAAACCAATCCGCGGCATTTAGTAGCGGTAAAGTTAGACCAAA
binding result (NinH (native, untagged) [3]): binds

B2: BB13 (dsDNA)
DNA 1: TTTGGTCTAACTTTACCGCTACTAAATGCCGCGGATTGGTTTCGCTGAATCAGGTTATTA
DNA 2: TAATAACCTGATTCAGCGAAACATTGTAGGTAAGCTTAGTAGCGGTAAAGTTAGACCAAA
binding result (NinH (native, untagged) [4]; central 13 nt bubble): binds

B3: BT3 (dsDNA)
DNA 1: TTTGGTCTAACTTTACCGCTACTAAATGCCGCGGATTGGTTTCGCTGAATCAGGTTATTA
DNA 2: TAATAACCTGATTCAGCGAAACCAATCCAAAGCGGCATTTAGTAGCGGTAAAGTTAGACCAAA
binding result (NinH (native, untagged) [5]; 3 extra A bulge in strand 2): binds

B4: BB1 (dsDNA)
DNA 1: TTTGGTCTAACTTTACCGCTACTAAATGCCGCGGATTGGTTTCGCTGAATCAGGTTATTA
DNA 2: TAATAACCTGATTCAGCGAAACCAATCGGCGGCATTTAGTAGCGGTAAAGTTAGACCAAA
binding result (NinH (native, untagged) [4]; central 1 nt mismatch): binds

B5: BT2 (dsDNA)
DNA 1: TTTGGTCTAACTTTACCGCTACTAAATGCCGCGGATTGGTTTCGCTGAATCAGGTTATTA
DNA 2: TAATAACCTGATTCAGCGAAACCAATCCAAGCGGCATTTAGTAGCGGTAAAGTTAGACCAAA
binding result (NinH (native, untagged) [5]; 2 extra A bulge in strand 2): binds

B6: BB20 (dsDNA)
DNA 1: TTTGGTCTAACTTTACCGCTACTAAATGCCGCGGATTGGTTTCGCTGAATCAGGTTATTA
DNA 2: TAATAACCTGATTCAGCGAATGACCGATAACGTCCACTTGAGCGGTAAAGTTAGACCAAA
binding result (NinH (native, untagged) [4]; central 20 nt bubble): binds

B7: BT1 (dsDNA)
DNA 1: TTTGGTCTAACTTTACCGCTACTAAATGCCGCGGATTGGTTTCGCTGAATCAGGTTATTA
DNA 2: TAATAACCTGATTCAGCGAAACCAATCCAGCGGCATTTAGTAGCGGTAAAGTTAGACCAAA
binding result (NinH (native, untagged) [5]; 1 extra A bulge in strand 2): binds

B8: BB5 (dsDNA)
DNA 1: TTTGGTCTAACTTTACCGCTACTAAATGCCGCGGATTGGTTTCGCTGAATCAGGTTATTA
DNA 2: TAATAACCTGATTCAGCGAAACCAATCGCAACCATTTAGTAGCGGTAAAGTTAGACCAAA
binding result (NinH (native, untagged) [4]; central 5 nt bubble): binds

B9: N-His6-NinH (bacteriophage λ NinH, wild type) (natural protein)
chain: MTFSVKTIPDMLVEAYGNQTEVARRLKCSRGTVRKYVDDKDGKMHAIVNDVLMVHRGWSERDALLRKN
stoichiometry N [6]: 2

B10: DS50 (dsDNA)
DNA 1: GGCGACGTGATCACCAGATGATTGCTAGGCATGCTTTCCGCAAGAGAAGC
DNA 2: GCTTCTCTTGCGGAAAGCATGCCTAGCAATCATCTGGTGATCACGTCGCC
binding result (His-NinH wt [7]): binds

B11: Forked duplex FD (structured_DNA)
DNA 1: GGCGACGTGATCACCAGATGATTGCTAGGCATGCTTTCCGCAAGAGAAGC
DNA 2: GGCTTCTCTTGCGGAAAGCATGCCTAGCAATCCTGTCAGCTGCATGGAAC
binding result (His-NinH wt [8]): binds

B12: DS20 (o-FLU20/o-SS20) (dsDNA)
DNA 1: TGGGTCAACGTGGGCAAAGA
DNA 2: TCTTTGCCCACGTTGACCCA
Kd (NinH (native, untagged) [9]): ~57 nM
Kd (His-NinH wt [10]): 43 nM
